Results from patent US20260001947A1.

Target: human PD-L1 extracellular domain protein displayed on the membrane of MC38-PD-L1 cells (human) (UniProt Q9NZQ7)
Assay: flow cytometry on MC38-PD-L1 cells, directly PE-labelled antibody, 0.5 µl; Blank-PE shows 0.13% in the same gate

Sequence of human PD-L1 extracellular domain protein displayed on the membrane of MC38-PD-L1 cells (human) (Q9NZQ7 19-238): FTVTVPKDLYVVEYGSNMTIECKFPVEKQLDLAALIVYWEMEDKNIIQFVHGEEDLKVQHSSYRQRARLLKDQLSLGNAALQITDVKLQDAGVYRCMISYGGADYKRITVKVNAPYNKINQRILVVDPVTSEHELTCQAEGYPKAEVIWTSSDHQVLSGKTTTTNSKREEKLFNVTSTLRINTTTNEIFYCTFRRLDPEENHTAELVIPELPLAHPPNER

PE anti-human PD-L1 (BioLegend, clone number: 29E-2A3) (antibody)
% of cells in gate M6-2: 99.4%
